Biological target: Hsp90-CYF61 homodimer (used as WT in the ATPase assays) (S. cerevisiae) (UniProt P02829)
Chain of UniProt P02829 (P02829 whole entry): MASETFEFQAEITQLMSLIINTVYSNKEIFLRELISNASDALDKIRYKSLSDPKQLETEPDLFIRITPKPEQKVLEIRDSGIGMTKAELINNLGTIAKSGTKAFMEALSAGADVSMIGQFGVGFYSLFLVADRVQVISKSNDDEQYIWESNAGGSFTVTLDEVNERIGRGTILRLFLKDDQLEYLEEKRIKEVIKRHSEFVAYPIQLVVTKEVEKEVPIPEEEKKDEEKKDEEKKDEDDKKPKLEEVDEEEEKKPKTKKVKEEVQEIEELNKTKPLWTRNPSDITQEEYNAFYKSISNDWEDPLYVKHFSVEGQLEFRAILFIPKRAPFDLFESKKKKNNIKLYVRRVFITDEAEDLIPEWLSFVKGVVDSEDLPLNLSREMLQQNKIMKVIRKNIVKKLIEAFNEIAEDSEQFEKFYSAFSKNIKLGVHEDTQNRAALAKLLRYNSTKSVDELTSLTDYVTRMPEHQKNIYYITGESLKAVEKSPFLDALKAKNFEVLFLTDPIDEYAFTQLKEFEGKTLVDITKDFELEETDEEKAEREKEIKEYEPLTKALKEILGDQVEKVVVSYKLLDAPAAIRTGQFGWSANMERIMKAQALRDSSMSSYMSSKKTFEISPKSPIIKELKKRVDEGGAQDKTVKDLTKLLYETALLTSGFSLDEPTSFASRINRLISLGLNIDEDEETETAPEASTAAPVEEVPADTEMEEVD

stimulation of Hsp90 ATPase activity by Aha1 (ATP-regenerating coupled enzyme assay; 6 uM Aha1, 2 uM Hsp90 dimer): 20 fold
B1: Aha1 (activator of Hsp90 activity 1) cochaperone (natural protein)
chain: MVVNNPNNWHWVDKNCIGWAKEYFKQKLVGVEAGSVKDKKYAKIKSVSSIEGDCEVNQRKGKVISLFDLKITVLIEGHVDSKDGSALPFEGSINVPEVAFDSEASSYQFDISIFKETSELSEAKPLIRSELLPKLRQIFQQFGKDLLATHGNDIQVPESQVKSNYTRGNQKSSFTEIKDSASKPKKNALPSSTSTSAPVSSTNKVPQNGSGNSTSIYLEPTFNVPSSELYETFLDKQRILAWTRSAQFFNSGPKLETKEKFELFGGNVISELVSCEKDKKLVFHWKLKDWSAPFNSTIEMTFHESQEFHETKLQVKWTGIPVGEEDRVRANFEEYYVRSIKLTFGFGAVL

Reference: paper PMC12205646
